Assay results: patent US20230265187A1

Tests used:
[1] = biological target: human TIGIT on Jurkat cells (TIGIT/NFAT reporter Jurkat cells, BPS Bioscience #60538; Promega TIGIT Effector Cells) (human) (UniProt Q495A1); assay: cell-based or functional assay
[2] = biological target: human TIGIT on Jurkat cells (TIGIT/NFAT reporter Jurkat cells, BPS Bioscience #60538; Promega TIGIT Effector Cells) (human) (UniProt Q495A1); assay: flow cytometry, TIGIT/NFAT Jurkat cells, 10 ug/ml

Chain of human TIGIT on Jurkat cells (TIGIT/NFAT reporter Jurkat cells, BPS Bioscience #60538; Promega TIGIT Effector Cells) (human) (Q495A1 22-244): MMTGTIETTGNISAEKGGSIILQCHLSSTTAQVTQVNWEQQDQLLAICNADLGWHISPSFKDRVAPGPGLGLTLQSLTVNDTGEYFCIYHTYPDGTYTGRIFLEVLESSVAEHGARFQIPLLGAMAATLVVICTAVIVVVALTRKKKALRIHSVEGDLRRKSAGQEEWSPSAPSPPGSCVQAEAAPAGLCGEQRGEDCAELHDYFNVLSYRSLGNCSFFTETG

max. signal (% of 22G2) [1]: 116 % of 22G2
MFI [2]: 10700 MFI
B1: 43586p1.2.F6 (scFv, V domains shown)
VH: EVQLLESGEGLVQPGGSLRLSCAASGFTFTSYLMSWVRQAPGKGLEWVSTITWDGDRTYYADSVKGRFTISRDNSKNTLYLQMNSLRVGDTAVYYCAKHWTVFQYGMDVWGQGTTVTVSS
VL: QSVLTQPASASGTPGQRVTISCSGTISNIETKYVSWYQQLPGTAPKLLIYGNHQRPSGVPDRFSGSKSGTSASLAISGLQSEDEADYYCASWENDLKSWVFGGGTKLTVL
